Measured values taken from the supplement of paper PMC7877785.
± gives the uncertainty stated by the source.

Assay: self-splicing fitness, log relative to wild type (ln ratio); higher = more splicing; Tetrahymena group I intron in knt gene, E. coli kanamycin selection, DiMSum; sequences stand for … in CUCUCU…GGAGGGAAAAGUUAUCAGGCAUGCACCUGGUAGCUAGUCUUUAAACCAAUAGAUUGCAUCGGUUUAAAAGGCAAGACCGUCAAAUUGCGGGAAAGGGGUCAACAGCCGUUCAGUACCAAGUCUCAGGGGAAACUUUGAGAUGGCCUUGCAAAGGGUAUGGUAAUAAGCUGACGGACAUGGUCCUAACCACGCAGCCAAGUCCUAAGUCAACAGAUCUUCUGUUGAUAUGGAUGCAGUUCACAGACUAAAUGUCGGUCGGGGAAGAUGUAUUCUUCUCAUAAGAUAUAGUCGGACCUCUCCUUAAUGGGAGCUAGCGGAUGAAGUGAUGCAACACUGGAGCCGCUGGGAACUAAUUUGUAUGCGAAAGUAUAUUGAUUAGUUUUGGAGUACUCGUGGUCG
Summary of the method: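 Colonies from six replicate transformations of E. coli BL21(DE3) were pooled and amplicon-sequenced on an Illumina HiSeq 2500. The library placed an intron with all eight P1ex-region nucleotides randomised inside the knt kanamycin-resistance gene on pET-22b(+), and cells grew overnight at 37°C or 30°C on LB agar with or without 25 μg/mL kanamycin (plus 100 μg/mL carbenicillin, 50 μM IPTG, 0.2% rhamnose). Fitness is the DiMSum error-weighted combination of wild-type-normalised replicate fold changes, kanamycin versus none.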

Sequence	self-splicing fitness (ln) (30 °C)	self-splicing fitness (ln) (37 °C)
UGCUAGCAAUAUUACGCACC	-1.91 ± 0.34	-0.242 ± 0.37
UCGAAGCAAUAUUACGUUGC	-3.36 ± 0.26	
UCGCAGCAAUAUUACGGGAG	-3.59 ± 0.24	-3.15 ± 0.23
AGGCAGCAAUAUUACGACGG	-2.49 ± 0.16	-0.746 ± 0.22
GAAGAGCAAUAUUACGACAC	-1.1 ± 0.31	0.351 ± 0.33
GCCGAGCAAUAUUACGAAGG	-3.25 ± 0.24	-2.12 ± 0.49
UCAGAGCAAUAUUACGGAAC	-2.43 ± 0.2	-2.49 ± 0.26
UAUUAGCAAUAUUACGGGCG	-0.882 ± 0.076	0.185 ± 0.083
UGUUAGCAAUAUUACGACAA	-0.407 ± 0.18	0.123 ± 0.16
ACCAAGCAAUAUUACGGGUA	-1.98 ± 0.091	-0.405 ± 0.072
GCAAAGCAAUAUUACGGUGA	-0.987 ± 0.079	0.221 ± 0.098
UACGAGCAAUAUUACGACGG	-2.13 ± 0.15	0.000849 ± 0.18
UUGGAGCAAUAUUACGACAA	-1.07 ± 0.16	-0.647 ± 0.18
GAUCAGCAAUAUUACGGGGU	-3.13 ± 0.3	-2.32 ± 0.26
UGUCAGCAAUAUUACGGUAA	-0.649 ± 0.087	0.294 ± 0.1
GUCCAGCAAUAUUACGACUC	-0.116 ± 0.087	-0.335 ± 0.1
GGUGAGCAAUAUUACGGACG	-0.0602 ± 0.16	0.806 ± 0.32
CCUAAGCAAUAUUACGUAUU	-4.79 ± 0.39	-3.07 ± 0.2
UUAAAGCAAUAUUACGGCAC	-1.19 ± 0.1	-0.195 ± 0.13
CUCAAGCAAUAUUACGACAG	-1.19 ± 0.062	-0.407 ± 0.082
GCUUAGCAAUAUUACGGUUC	-0.635 ± 0.098	-0.185 ± 0.12
GAGGAGCAAUAUUACGUAUG	-3.97 ± 0.47	-2.83 ± 0.4
UGUGAGCAAUAUUACGCUUA	-2.52 ± 0.27	-2.85 ± 0.27
UCUUAGCAAUAUUACGUAUG	-1.33 ± 0.15	-0.892 ± 0.18
ACCGAGCAAUAUUACGGAUC	-3.86 ± 0.26	-1.95 ± 0.2
CAGUAGCAAUAUUACGAGGG	-2.85 ± 0.13	-4.18 ± 0.46

Sequence	self-splicing fitness (ln) (30 °C)	self-splicing fitness (ln) (37 °C)
AUUAAGCAAUAUUACGAGCA	-0.83 ± 0.15	-0.726 ± 0.18
CUGUAGCAAUAUUACGGUAA	-3.63 ± 0.24	-2.3 ± 0.26
CUGCAGCAAUAUUACGGUAA	-2.7 ± 0.16	-1.76 ± 0.14
CCUUAGCAAUAUUACGCGAG	-4.2 ± 0.31	-3.27 ± 0.28
CGGAAGCAAUAUUACGGUUC	-3.49 ± 0.3	-2.85 ± 0.25
UCCUAGCAAUAUUACGAGAG	-3.57 ± 0.17	-2.51 ± 0.2
CGCAAGCAAUAUUACGCGCG	-3.11 ± 0.12	-2.51 ± 0.16
GAAUAGCAAUAUUACGCUAA	-2.59 ± 0.25	-1.05 ± 0.25
UGAUAGCAAUAUUACGGAAU	-2.96 ± 0.18	-2 ± 0.23
GGCUAGCAAUAUUACGCCCU		0.0828 ± 0.36
UAUUAGCAAUAUUACGGCCG	-0.0472 ± 0.19	0.135 ± 0.31
GUCUAGCAAUAUUACGUACA	-0.922 ± 0.1	-0.376 ± 0.1
GGUGAGCAAUAUUACGAUUA		-0.938 ± 0.45
CCCCAGCAAUAUUACGAAGG	-4.06 ± 0.17	-2.51 ± 0.15
CCUCAGCAAUAUUACGAUCU	-3.75 ± 0.27	-2.79 ± 0.23
GUUCAGCAAUAUUACGUCGG	-3.7 ± 0.21	-2.39 ± 0.23
UCAAAGCAAUAUUACGAAAA		-2.95 ± 0.27
AUCUAGCAAUAUUACGUUGG	-3.4 ± 0.19	-1.88 ± 0.19
UACAAGCAAUAUUACGGUCC	-1.38 ± 0.18	-1.34 ± 0.18
AGAGAGCAAUAUUACGCCUU	-3.56 ± 0.29	-2.16 ± 0.21
CGUUAGCAAUAUUACGCCAA	-1.97 ± 0.45	
UUGUAGCAAUAUUACGAAUU	-1.53 ± 0.34	-1.47 ± 0.38
AGCGAGCAAUAUUACGUAUU	-3.54 ± 0.17	-1.79 ± 0.16
AGCGAGCAAUAUUACGGCUA	-0.634 ± 0.19	-0.479 ± 0.13
GUAAAGCAAUAUUACGGGCC	-1.92 ± 0.25	-1.05 ± 0.23
AACUAGCAAUAUUACGUCCA	-0.578 ± 0.094	-0.0353 ± 0.11

Sequence	self-splicing fitness (ln) (30 °C)	self-splicing fitness (ln) (37 °C)
CGCCAGCAAUAUUACGUGCC	-1.13 ± 0.091	-0.673 ± 0.11
AUCCAGCAAUAUUACGGCGG	-1.04 ± 0.09	-0.327 ± 0.11
AAAAAGCAAUAUUACGGUGA	-0.824 ± 0.058	-0.362 ± 0.064
UAUAAGCAAUAUUACGCAAG	-1.86 ± 0.23	0.725 ± 0.17
UUCGAGCAAUAUUACGUGGG	-2.45 ± 0.12	-2.75 ± 0.19
AAAAAGCAAUAUUACGCCUU	-0.374 ± 0.071	0.151 ± 0.1
CCUAAGCAAUAUUACGUUGC	-3.6 ± 0.24	-3.42 ± 0.34
UACAAGCAAUAUUACGACAA	-0.986 ± 0.11	-0.403 ± 0.11
CGACAGCAAUAUUACGACGU	-1.07 ± 0.07	0.0477 ± 0.086
UGAGAGCAAUAUUACGAUCA	-1.62 ± 0.22	-1.1 ± 0.25
GCCGAGCAAUAUUACGCGGC		-2.33 ± 0.36
ACCAAGCAAUAUUACGUUAG	-3.94 ± 0.17	-2.83 ± 0.17
UGGUAGCAAUAUUACGAUGG	-2.44 ± 0.15	-1.1 ± 0.17
CCCCAGCAAUAUUACGCUGC	-3.41 ± 0.17	-2.06 ± 0.23
UAUCAGCAAUAUUACGAUUA	0.023 ± 0.072	0.233 ± 0.087
ACUCAGCAAUAUUACGUAAC	-2.79 ± 0.14	-1.2 ± 0.16
UACUAGCAAUAUUACGUAAG	-4.32 ± 0.31	-3.07 ± 0.3
AGAGAGCAAUAUUACGUAUC		-2.03 ± 0.17
CAGUAGCAAUAUUACGCGAA	-4.22 ± 0.43	-2.8 ± 0.31
CUUGAGCAAUAUUACGGUCG	-1.67 ± 0.15	-2.3 ± 0.3
GACUAGCAAUAUUACGACGU	-0.558 ± 0.085	0.328 ± 0.099
CUAGAGCAAUAUUACGAAGA	-3.61 ± 0.28	-1.94 ± 0.43
CCCUAGCAAUAUUACGUGCA	-3.99 ± 0.18	-2.92 ± 0.14
GUCAAGCAAUAUUACGAAUG	-4.11 ± 0.22	-1.18 ± 0.1
AAUGAGCAAUAUUACGACCU	-0.757 ± 0.24	-0.257 ± 0.41
AAGCAGCAAUAUUACGUGUA	-1.83 ± 0.081	-0.134 ± 0.077
